Results: the supplement of paper PMC10126150
± gives the standard deviation of the averaged measurements.

test system: ATP; assay: switch fluorescence ratio, 500 uM ATP over buffer (Cy3 cluster intensity, sum of 5 cycles each) (fold (ratio)); higher = stronger signal-on switching upon ATP binding; sequences stand for … in TCGTCGGCAGCGTCAGATGTGTATAAGAGACAGTTTTTTTTTTTTTTTTTTTTTTTTT…TC; conditions: aptamer strand: ATP DNA aptamer (quencher-CACCTGGGGGAGTATTGCGGAGGAAGG + anchor), 100 nM annealed; ATP concentration: 500 uM
Method in brief: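 Switching-strand clusters labelled with Cy3 on a modified Illumina MiSeq flow-cell were annealed to 100 nM quencher-labelled ATP aptamer, imaged in selection buffer, and re-imaged after 15 min with 500 uM ATP at 22 °C. This was done over five cycles with NaOH stripping and re-annealing in between. The fluorescence ratio is summed target-cycle over summed buffer-cycle Cy3 intensity per cluster, averaged per switch-domain sequence, excluding clusters outside 100-1000 RFU.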
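Further: ATP exposure 15 min at 22 °C before imaging.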

Row | Sequence | switch fluorescence ratio
1 | CGCTTATACG | 1.78 ± 0.58
2 | GGCCCCTATT | 1.023 ± 0.01
3 | TATTAATTAT | 1.01 ± 0.022
4 | CTTCTTGTGG | 0.9925 ± 0.009
5 | GCGCGGGAAC | 1.46 ± 0.17
6 | GGCGATGGGG | 0.979 ± 0.023
7 | TTTAATACGA | 1.04 ± 0.042
8 | TTAAGCAACA | 1.13 ± 0.018
9 | AAGGTCGGGT | 1.01 ± 0.043
10 | GGGTTATACG | 1.04 ± 0.031
11 | GCGTATTTGC | 1.033 ± 0.01
12 | AAACTTTAGT | 0.987 ± 0.018
13 | AAAATTTGGT | 1.04 ± 0.029
14 | GTTTATTCGC | 0.998 ± 0.043
15 | ATGCGATCAA | 1.02 ± 0.014
16 | GTTATTATTA | 0.993 ± 0.019
17 | TCAGTCCTAT | 1 ± 0.026
18 | TAAAAGGACC | 1.09 ± 0.023
19 | TGTGTTGGGT | 0.98 ± 0.015
20 | TCTGGAAGGG | 1.02 ± 0.019
21 | CAATCGTAAA | 1.01 ± 0.02
22 | AGAGAGATGG | 0.977 ± 0.018
23 | CGTCGGGGTT | 0.973 ± 0.032
24 | TTTGTTTTAG | 0.983 ± 0.031
25 | TGAAAGTTGT | 1.02 ± 0.029

Row | Sequence | switch fluorescence ratio
26 | ACATGAGTCT | 1.02 ± 0.02
27 | TGGGGATTTT | 0.998 ± 0.063
28 | CGTAACCCGT | 0.98 ± 0.033
29 | ATGTGGGGTA | 0.985 ± 0.026
30 | TGGTTTGGCA | 0.962 ± 0.012
31 | TTGTAAACTT | 1.03 ± 0.012
32 | AGCGGAGTAT | 0.998 ± 0.063
33 | TTATAATGGT | 1.02 ± 0.062
34 | AGGATTGTGT | 0.9523 ± 0.0032
35 | TGAATATCTT | 1.01 ± 0.026
36 | GGGTAGGGTT | 0.9832 ± 0.0077
37 | ACCAGTGTCA | 1.02 ± 0.021
38 | ATTGGCCATC | 0.997 ± 0.0048
39 | TTCGTACAGC | 1.04 ± 0.036
40 | ACGTCGGTAC | 3 ± 0.49
41 | GAATCCGGTT | 0.989 ± 0.019
42 | AATCATCGGT | 0.999 ± 0.027
43 | CAACCGCGTA | 2.36 ± 0.1
44 | GGGGGAAAAT | 0.993 ± 0.042
45 | CAGCGGGGGT | 1.03 ± 0.05
46 | TCGCCATCCT | 1.09 ± 0.019
47 | CGTGCTGCAA | 4.91 ± 1.7
48 | CGAAGGGTGG | 0.993 ± 0.028
49 | TAGGTTTAAA | 0.991 ± 0.039
50 | ATGTTGGCGT | 1 ± 0.011

Row | Sequence | switch fluorescence ratio
51 | TGACAGTCGT | 0.977 ± 0.024
52 | TTTGTCGCAT | 1.14 ± 0.067
53 | GCGCAGCGGC | 1.09 ± 0.023
54 | TTGGTGCTGT | 1.01 ± 0.017
55 | ATGCTCTTAT | 1 ± 0.012
56 | TTCAATTTCC | 1.01 ± 0.028
57 | GGATTATGTC | 0.975 ± 0.039
58 | AAGCGAGGTT | 0.991 ± 0.021
59 | AGTGCTAGGG | 1 ± 0.024
60 | CCGGCGGTTG | 1 ± 0.012
61 | TGGTGTGAAT | 1.01 ± 0.036
62 | ACGCAGTTCT | 1.061 ± 0.008
63 | GTTGAGTTTT | 0.962 ± 0.03
64 | ATAAACTTGG | 1.01 ± 0.033
65 | TTTTTATCTA | 1.01 ± 0.036
66 | AGCCGTATGA | 1.013 ± 0.0087
67 | TTTTTCAATT | 0.982 ± 0.017
68 | AATTGAAAAT | 0.967 ± 0.0073
69 | TGGTTTAGTT | 0.998 ± 0.017
70 | CAATGAGAGA | 0.9792 ± 0.0083
71 | ATGGTTGGTC | 0.97 ± 0.023
72 | GTTAGCGGGG | 0.9823 ± 0.0048
73 | TTTTTGGAAA | 1.01 ± 0.051
74 | AGAAAAGTGT | 1.0276 ± 0.00047
75 | AGGGGAGTGG | 0.992 ± 0.038

Row | Sequence | switch fluorescence ratio
76 | GTTTGGAGGT | 0.992 ± 0.03
77 | GCTTTTCGGG | 1.02 ± 0.02
78 | ACAAACGGCA | 1.33 ± 0.024
79 | GTTCAAGGGC | 0.996 ± 0.032
80 | CGTACTGTAA | 1.18 ± 0.03
81 | GTGTTGGGGG | 0.984 ± 0.039
82 | TCTTAGTGGG | 1.01 ± 0.017
83 | ATTCAGTTGC | 1.08 ± 0.072
84 | TTAGTCGACC | 0.9919 ± 0.0016
85 | AACGTAGGAC | 1.1 ± 0.014
86 | TTAGTAGTGG | 0.974 ± 0.01
87 | CAACACGGCA | 1.11 ± 0.026
88 | ATTAGTAGCA | 1 ± 0.014
89 | CGGTTTCTGT | 0.9814 ± 0.0092
90 | GCTTTATGTT | 0.9938 ± 0.0015
91 | CACTAAGTGG | 1.025 ± 0.0023
92 | GTAGCGGGAG | 1.057 ± 0.0053
93 | TTATTTTTAT | 0.998 ± 0.018
94 | GAGTTAACGG | 1 ± 0.0026
95 | TTTGGTGGAA | 1.01 ± 0.044
96 | ACGGAAAGTT | 0.9876 ± 0.0071
97 | TCGGTATGAG | 0.9698 ± 0.0027
98 | GTGAGCGGGG | 0.974 ± 0.037
99 | GCGGGGGTGT | 1.05 ± 0.026
100 | CCGGGGGGAA | 1.03 ± 0.063
